Key:
[1] = molecular target: T1, MSLN-Avi ectodomain (human ectodomain of MSLN) (human, UniProt Q13421 296-598, limits assumed); assay: written beside the structure of the 1A12 Fab on MSLN; no assay named on the sheet (the value is the rounded SPR fit of FIG. 7A)
T1 construct: extracellular domain; Expressed in 293-F cells as the fusion sFlag-His-Scn-tev-MSLN-Avi and cleaved with TEV protease; It was the analyte in SPR, and I take it to be the MSLN in the Fab:MSLN crystal complex as well; not shown: Avi tag
T1 sequence (Q13421 other isoform, or with tags, fused parts or gaps limits assumed): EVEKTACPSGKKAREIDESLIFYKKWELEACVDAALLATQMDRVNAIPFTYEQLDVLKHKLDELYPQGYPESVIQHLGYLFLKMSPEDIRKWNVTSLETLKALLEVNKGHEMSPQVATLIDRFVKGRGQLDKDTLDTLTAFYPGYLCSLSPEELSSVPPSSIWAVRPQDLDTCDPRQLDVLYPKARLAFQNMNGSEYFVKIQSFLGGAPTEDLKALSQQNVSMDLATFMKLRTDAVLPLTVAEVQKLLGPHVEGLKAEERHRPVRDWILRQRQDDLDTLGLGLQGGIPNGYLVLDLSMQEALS
Description: (§1) Surface plasmon resonance (SPR) experiments were performed at 25° C. on a BIACORE™ T100 instrument (GE Healthcare) with a Series S CM4 chip using a running buffer of 10 mM HEPES, pH 7.4, 150 mM NaCl, 3 mM EDTA, 0.05% surfactant P20 with 0.1 mg/mL bovine serum albumin. Goat anti-human Fc antibody (Jackson Labs: 109005098) was amine coupled to the CM4 chip (˜2800 RUs) and each antibody was then captured on a single flow cell of immobilized goat anti-human Fc. The purified MSLN-Avi (discussed above) was run as a concentration series at 50 uL/min over the captured antibodies and the goat anti-human Fc reference surface. CM4 chip was regenerated with 10 mM glycine, pH1.5 for 30 sec at 50 uL/min. Data was double referenced and analyzed in BiaEval 2.0.4.

[2] = molecular target: T1, MSLN-Avi ectodomain (human ectodomain …); assay: SPR, Biacore T100, 25 C; antibody captured on goat anti-human Fc (57.1 +/- 0.8 RUs), MSLN-Avi as analyte 2.0-1000 nM in duplicate, 1:1 fit
Description: as §1

B1: 1A12 anti-MSLN antibody (antibody, human IgG1, V domains shown)
VH: EVQLLESGGGLVQPGGSLRLSCAASGLTFRSYAMTWVRQAPGKGLEWVSGISVSGGITYYADSVKGRFTISRDNSKNTLYLQMNSLRAEDTAVYYCAKRGAAVGSFDYWGQGTLVTVSS
VL: DIQMTQSPSSLSASVGDRVTITCRSSQGIGSWLAWYQQKPEKAPQSLIYAASSLQSGVPSRFSGSGSGTDFTLTISNLQPEDFATYYCQQYNSYPLTFGGGTKVEIK
notes: also called 1A12b; anti-MSLN 1A12 antibody
For B1, the Kd [1] was 64 nM, the Kd [2] was 64.4 nM and the koff [2] was 0.00458 s⁻¹. It also gave a kon [2] of 71100 M⁻¹ s⁻¹.

— patent US20210309755A1 (FRED HUTCHINSON CANCER CENTER, published 2021)
